From paper PMC2630536

Columns and labels:
[1] = target: fluorescein-EGR-chloromethylketone-labeled thrombin (bovine) (bovine); test: other fluorescence titration
TMEGF456 Y358F = test: SPR
TMEGF456 E357Q = test: SPR
TMEGF456 M388L = test: SPR
TMEGF456 D349N = test: SPR

In the case of TMEGF45 D349N (domain or fragment), the Kd [1] is reported as 43 nM.
For TMEGF45 D400E (domain or fragment), the Kd [1] was 49 nM.
In the case of TMEGF45 E357Q (domain or fragment), the Kd [1] is reported as 55 nM.
With TMEGF45 M388L (domain or fragment) the Kd [1] was 57 nM.
For TMEGF45 wild type (domain or fragment), the Kd [1] was 68 nM.
For “thrombin (PPACK-thrombin in the SPR; active thrombin in the protein C activation assay) (enzyme)”, the Kd (TMEGF456 Y358F) was 2.6 nM, the Kd (TMEGF456 E357Q) was 5.2 nM and the Kd (TMEGF456 M388L) was 4.4 nM. The Kd (TMEGF456 D349N) was 4.2 nM.
